According to the DeepSol protein solubility set:

Experiment: soluble on expression in E. coli; label from the status in PepcDB or PDB records

Sequence | soluble on expression in E. coli
MAVKISGVLKDGAGKPVVNCAIELRARRTSPTVVAHVVATCVTDNNGAYVIEAEPGYYEVALHCNGWQPTRVGDIDVAPTDAPGTLNAFLNAPKDGDLRPEVMKRFEEMVAQAQQSAGAAAGNAQQTAQDVAAAATARDDAQRFAEKARQDATVTAEDRKATAEDVTSTGANAAAAGQSAQDAAGYARAAEQAKNDIDAALTGTLKMANHLSEIAAAGEKAQQKSRDNLGLKSAATMEAQSDIYDRTKGRLAIPGAFGFGCAFLPEDVIRFDTKSDFLAWVRNALPGEYSVAGPYGIIIPDTRFEGVLSIRWTDARPETTEPRYRAKSLTFYGINGPIYHTRYRYWPISRLTG | not soluble
GPGSMRLSLLRRFCEYVPKGAPTQVSLSVETPYGVTRAFRMTEMAAAAADAERDAKGFFYLPRMDYDVGQGVAPLMSRKQFDVQYNVFHKAAVDRLNAHTLGSELEGHNLNVVIRNSSFDASHAVIHAAASEHFNYCFWYRSLRPWGTAVPARLKEELQLQYSQNGTLDAVKEVQRLFTVAALSQQSAGGWVYLVWTGKAFDVIPFDHGTCPIGSDLIPLLALNTHESARCYDYPLAAEDEEGDEVERFVRNFFKTCNWRLVEHYFLQCGRA | not soluble
MLRTYFPEVVLFLHAFPLNKEMYRYQFCAFEEEGIPYVALDYPGFGDAPNLPGEYTVERLTDYVVNELRKFRVKKVIPIGDSMGGYIMFDMWRRYREMIKGFVFVATRAEADTEEGKKARYALIEKVQKEGKEFLIEAMLENQTSPATKKDENKMRTLRCIMEKATREGIVKTLKALAERKDNTDLLPSIDVPTLVIAGKDDERVTPPEIVKKIAEGIKGAKYYELENSAHLPPFENPEKFNEVVIPFVKDLLKTP | soluble
MGSDKIHHHHHHMQAKLTKKEFIEWLKTSEGKQFNVDLWYGFQCFDYANAGWKVLFGLLLKGLGAKDIPFANNFDGLATVYQNTPDFLAQPGDMVVFGSNYGAGYGHVAWVIEATLDYIIVYEQNWLGGGWTDRIEQPGWGWEKVTRRQHAYDFPMWFIRPNFKSETAPRSIQSPTQASKKETAKPQPKAVELKIIKDVVKGYDLPKRGGNPKGIVIHNDAGSKGATAEAYRNGLVNAPLSRLEAGIAHSYVSGNTVWQALDESQVGWHTANQLGNKYYYGIEVCQSMGADNATFLKNEQATFQECARLLKKWGLPANRNTIRLHNEFTSTSCPHRSSVLHTGFDPVTRGLLPEDKQLQLKDYFIKQIRVYMDGKIPVATVSNESSASSNTVKPVASAWKRNKYGTYYMEESARFTNGNQPITVRKIGPFLSCPVAYQFQPGGYCDYTEVMLQDGHVWVGYTWEGQRYYLPIRTWNGSAPPNQILGDLWGEIS | not soluble
MMEVLTGPERRRRWSVEEKLALVRESFEPGKTVSMVARQHGVNPNQVFHWRKLYQDGSLSAVSAGEEVVPASELAEALKLVRVLQRMLGKKTMENEILREAVEYGRAKKWIARSPSLPGDDQLEHHHHHH | not soluble
MKAWEIARKPRVVVYPGDPLTYVRAMMRREEEPIAVVVVESEKSEKVVGYITWNEVIQVTSHYSHLRAKDAMLDYPVAFKDDDIGDVYKRMVEEKVYAIPVLESRDNPNLVGVVTVADIVRALRRAGFK | not soluble
MQALQERLEKLENATGSEVWEVLKASEPELRQDLSSLQKLKADKESAAREALTALKTKKNELKNLKNDVESLKNEYKTYIEMVENGLKQSGLDIKQVVQVFERVLEESLSEKRLAILSTIDSAHISDIKSIKTPVKSILKLLEDPNKLQLRILVQSELREFSNSAIEIFRRSLWDLFQNQGIPMKNLGEMPNSEDFLQKIGELFQFSTDLDKLIAGNWGKSIENLISAAFGQLSNYCIDIIENERGEADFEWILKSSHDWAKNLSQILQKTVEKSNLESELKQEFEEKFNEKFVDFIKLITRKFLEKNIKEPTIFSNVAQMLKKFKISSEFNLSGDRDLQEPFYEPKFMSRWILVYYIVAKISEYPVLTQLFAPLKITVVSKKIFFF | not soluble
MQKVEGIIFDMDGVLFDSERISLEFWMETFEKYGYTMTKEIYTSVMGRNRKGIIEGLTDIYDSSVPIIDLYDEKTKNMIEFMERKGAPIKLGVNELISFLKENGYKMAVATSTKRERAVKRLAKANLKDYFDAIVCGDDVVNSKPNPEIFLKAAKKINVNPKNCIVIEDSPMGVEAAYNGGIRCINVPDLKEPDEQIKSQSHKILENLLEVREYLKSLNSKECHNL | not soluble
PDEKIVRIHSSSGTTGSPVIIPYTQKDVDVWSEMMMRCYQMAGVTNNDRVHITPGYGLWTAGIGFQLGAERLGAMAIPMGPGNTEKQLQMMVDLKSTVLTSTSSYALLLAEEIRKKGIQDKIHLKIGVIGSERWSEKMRNRIESELGIKSFDIYGLTEIYGPGIALDCEYHEGMHYW | not soluble
MTESLNRDLPVLLATLNKLSSDADRILLENREDIRKIAYNLSIVMEKVKDDLPVLVENLKELSVNLNTVVKNNKVNINKTLVSLRKTTENLSRASYKLDKILADLESGKGTLGKLLKDEELYENVNQGVKALGKAGKVVEKTQLYIGLRGELYREGDSKGILSVRLVPDRDKYYLLEVVGDSRGRVYREEYLDGREVVKKEFKPEFTLQYARNFSLFGRTLTLRGGLKENTGGVGADYYIYRDKYLFADLWDFGRKDRPQDKDLKPNLQIGIHWYINRNLYVRFGGDDLLNSKLRGFFGGVGLEFVDEDLKYLLGGIGVPIR | not soluble
MGHHHHHHSHKGLIDEITKKNIQLKKEIQKLETELQEATKEFQIKEDIPETKMKFLSVETPENDSQLSNISCSFQVSSKVPYEIQKGQALITFEKEEVAQNVVSMSKHHVQIKDVNLEVTAKPVPLNSGVRFQVYVEVSKMKINVTEIPDTLREDQMRDKLELSFSKFRNGGGEVDRVDYDRQSGSAVITFVEIGVADKILKKKEYPLYINQTCHRVTVSPYTEIHLKKYQIFSGTSKRTVLLTGMEGIQMDEEIVEDLINIHFQRAKNGGGEVDVVKCSLGQPHIAYFEE | not soluble
MSLWEFYMPTDVFFGEKILEKRGNIIDLLGKRALVVTGKSSSKKNGSLDDLKKLLDETEISYEIFDEVEENPSFDNVMKAVERYRNDSFDFVVGLGGGSPMDFAKAVAVLLKEKDLSVEDLYDREKVKHWLPVVEIPTTAGTGSEVTPYSILTDPEGNKRGCTLMFPVYAFLDPRYTYSMSDELTLSTGVDALSHAVEGYLSRKSTPPSDALAIEAMKIIHRNLPKAIEGNREARKKMFVASCLAGMVIAQTGTTLAHALGYPLTTEKGIKHGKATGMVLPFVMEVMKEEIPEKVDTVNHIFGGSLLKFLKELGLYEKVAVSSEELEKWVEKGSRAKHLKNTPGTFTPEKIRNIYREALGVEGGSHHHHHH | soluble
MKVFNRPILFDIVSRGSPDGLEGLLSFLLTHKKRLTDEEFREPSTGKTCLPKALLNLSAGRNDTIPILLDIAEKTGNMREFINSPFRDVYYRGQTALHIAIERRCKHYVELLVEKGADVHAQARGRFFQPKDEGGYFYFGELPLSLAACTNQPHIVHYLTENGHKQADLRRQDSRGNTVLHALVAIADNTRENTKFVTKMYDLLLIKCAKLFPDTNLEALLNNDGLSPLMMAAKTGKIGIFQHIIRREIADAAAHHHHHH | soluble
MGSDKIHHHHHHMSVTINDTSSASSTQGLSSTTAVEKNSSADLQNQFLTLLVAQLKNQDPTNPMSNDQLVSQLAQLNTVSGIEKLNTTLGSISGQINNNQSMQASTLIGHSVMIPGKDILVGKETSTPFGVELEKAAEVVTVTVNDATGKAVRTIELGTLSAGVHSFNWDSKLADGTVAPDGAYTFTVAASTGGAQQVVQPLSYAVVNSVVRGDSGALLDLGLRGKATLDDVRQIL | not soluble
MDLTASLEDDQREKLRQYTEFTHQQDYEVAIGTLASLNWNLEQAIEAHLMQEDKNDDEDPEILETIPAAASGRNAGASSSSRFEPEVINIEDDEMPATRGRRRGRAVTPDETTTVDNQVKRLRIDDGSSSSSNGAATHHRGAAIPRQKRGQATEPTPSSSGSSSASFSSRRGTRANPVPPPNQEPAHPESARQNGGILASRHNNHNNQQNNHHHHHQRIPINPRRVDVFNVDSDEDDDSMAIAYEDDDDGVHEVHHSEVCEKDRAISAFLAPKLGNEVVARGSGPPNGRIPMIPDGFSSVSDALRNFVAIFSDRFCSTPQTQAFMPPFYTEPLPAAVKEAFDHPNSEHRRPLLFYINHDRSIAANIFASQVLCSETVSTLIRHQYVLFPWDITSDSNLMLFLEYLQAANMGDVRTIIQRLAMSKIESFPLMAIVVKERNSYRLVDYCRGTDTSDQVMEKLLSGVSEYSDIRMNEQSERREREEREAIRNQQEAEYKASLAADKARMEAKQQEIEEQRLEEERKLREEEEECVRRQTVASTVPEEPPASAPLAEIINVKFRLPEGGQDMRRFRRLESIQTLINYLSSKGYSPDKFKYFNSDFPKKEITRHFDLSHNFADTKWPAREQIFVEEI | not soluble
MKLDQIDLNIIEELKKDSRLSMRELGRKIKLSPPSVTERVRQLESFGIIKQYTLEVDQKKLGLPVSCIVEATVKNADYERFKSYIQTLPNIEFCYRIAGAACYMLKINAESLEAVEDFINKTSPYAQTVTHVIFSEIDTKNGRG | soluble
MSVSARSAAAEERSVNCGTMAQPKNLEGYVGFANLPNQVYRKSVKRGFEFTLMVVGESGLGKSTLINSLFLTDLYSPEYPGPSHRIKKTVQVEQSKVLIKEGGVQLLLTIVDTPGFGDAVDNSNCWQPVIDYIDSKFEDYLNAESRVNRRQMPDNRVQCCLYFIAPSGHGLKPLDIEFMKRLHEKVNIIPLIAKADTLTPEECQQFKKQIMKEIQEHKIKIYEFPETDDEEENKLVKKIKDRLPLAVVGSNTIIEVNGKRVRGRQYPWGVAEVENGEHCDFTILRNMLIRTHMQDLKDVTNNVHYENYRSRKLAAVTYNGVDNNKNKGQLTKSPLAQMEEERREHVAKMKKMEMEMEQVFEMKVKEKVQKLKDSEAELQRRHEQMKKNLEAQHKELEEKRRQFEEEKANWEAQQRILEQQNSSRTLEKNKKKGKIF | not soluble
MHKDTHCAVVIDCWMNKLGEVNFENRPSRYPAFVEDVRKICGTKEIVFGLEDTRGFGRNLAAYLVGRKFEVKHVNPAYTSAVRLANPIIYKDDSYDAYCVARVLRDMVDTLKDAKHEDIFWTIRQMVKRRDLIVKSNVMNKNQLHSQLAYSYPSYRKFFAMIDSKSALCFWENYPSPEYIWNTIPEEIYQTIKPVHQALKIQRIHEIISMIERDGDTRKDYQPERDFIVRNIVKDIRHNKELIAEIDDELRKLIPLTGYKLHTMPGIDLVTEAQIISEIGDINRFPDSDKLARFMGLAPVQFSSAGKGKDQRCRNGNRALNAIFHFLAIQMVAVSASGKPRHPVFREYFEQKVKEGKNKPQALVCVARRLVRIIYGMMKTRTEYRPYEKVDDKN | soluble
MNSIWARLRLASSQLPIGGYSYSQGLEAALDNGWVRDAESARTWLVDQLQLNLARFEAPLLAGLLRAALIGDWAACDAASERHRASRETRELAQESRQMGFSLHQLLEALPELDAPGRAWLARQDPPNLAAAWAMAARAWRLDAEEALSAWFWSWLENQLAVLMKTLPLGQLAAQKLASSLLPELDRACAEALRRPAVEGSAAFGLALASMTHETQYSRLFRSLEHHHHHH | not soluble
MSLQTKQKGLQEVLIAAIKRATNEKTLVSFVKQIDWVDPLLFYAAGKRISFENRCYFADPAQHVIFAGIGSVFTIANSSHKRFQTARDEWEKVKENAFVQRDEYEFGTGPLLFGGFSFDPEKEKTDLWKEFKDTTFSLPAFLLTVKNEKAWLTMNTFVSATDCAETLSNEMISLEEKILGESRCALNGSKLTVISKVEVDPKGWMKAIEKVQDEMKQGNVQKVVLARELKVEMNHSIDSALVLEALRIGQPDCYVFSFDYKGACFLGATPERLIRKEDEKFTSMCLAGSIGHGHSIEESKRNSNALLHDEKNLAEHGYVVNMIRSVLNEHCEYVNIPESPGLLTTKNLIHLYTPVEAKGDASLLTMVEELHPTPALGGTPRLEAMKLIRDVELLDRGLYGAPIGWIDDEGNGEFAVALRCGLLNGEKASLFAGCGIVIDSIPQLEYEETSLKFRPMLGALEELMKEGHHHHHH | soluble
